B1: Probable peptidoglycan glycosyltransferase FtsW (Escherichia coli (strain K12)), P0ABG4 (parent)
chain: MRLSLPRLKMPRLPGFSILVWISTALKGWVMGSREKDTDSLIMYDRTLLWLTFGLAAIGFIMVTSASMPIGQRLTNDPFFFAKRDGVYLILAFILAIITLRLPMEFWQRYSATMLLGSIILLMIVLVVGSSVKGASRWIDLGLLRIQPAELTKLSLFCYIANYLVRKGDEVRNNLRGFLKPMGVILVLAVLLLAQPDLGTVVVLFVTTLAMLFLAGAKLWQFIAIIGMGISAVVLLILAEPYRIRRVTAFWNPWEDPFGSGYQLTQSLMAFGRGELWGQGLGNSVQKLEYLPEAHTDFIFAIIGEELGYVGVVLALLMVFFVAFRAMSIGRKALEIDHRFSGFLACSIGIWFSFQALVNVGAAAGMLPTKGLTLPLISYGGSSLLIMSTAIMMLLRIDYETRLEKAQAFVRGSR
partner: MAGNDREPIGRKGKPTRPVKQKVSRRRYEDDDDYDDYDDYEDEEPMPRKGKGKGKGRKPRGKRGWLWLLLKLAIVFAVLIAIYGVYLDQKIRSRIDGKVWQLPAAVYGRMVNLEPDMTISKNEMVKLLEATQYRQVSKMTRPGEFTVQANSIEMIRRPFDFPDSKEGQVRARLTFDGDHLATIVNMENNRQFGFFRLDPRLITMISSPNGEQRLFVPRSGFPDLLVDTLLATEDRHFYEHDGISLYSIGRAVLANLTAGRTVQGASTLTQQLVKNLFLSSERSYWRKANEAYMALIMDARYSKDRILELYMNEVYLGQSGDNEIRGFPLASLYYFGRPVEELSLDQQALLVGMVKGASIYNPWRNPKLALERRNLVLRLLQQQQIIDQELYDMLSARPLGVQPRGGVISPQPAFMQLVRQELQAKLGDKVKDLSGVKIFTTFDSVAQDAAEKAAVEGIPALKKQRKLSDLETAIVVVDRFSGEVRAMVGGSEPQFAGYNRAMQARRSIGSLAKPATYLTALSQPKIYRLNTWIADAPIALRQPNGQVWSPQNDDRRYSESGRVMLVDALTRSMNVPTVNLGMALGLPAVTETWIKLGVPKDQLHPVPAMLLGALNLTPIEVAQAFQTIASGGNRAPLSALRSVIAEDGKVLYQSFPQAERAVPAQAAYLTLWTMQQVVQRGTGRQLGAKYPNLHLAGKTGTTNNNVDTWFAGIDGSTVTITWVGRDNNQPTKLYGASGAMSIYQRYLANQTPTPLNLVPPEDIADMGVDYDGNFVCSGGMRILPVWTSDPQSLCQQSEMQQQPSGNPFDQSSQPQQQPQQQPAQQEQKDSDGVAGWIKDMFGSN
B2: Probable peptidoglycan glycosyltransferase FtsW (Escherichia coli (strain K12)), P0ABG4 (parent)
chain: B1 chain
partner: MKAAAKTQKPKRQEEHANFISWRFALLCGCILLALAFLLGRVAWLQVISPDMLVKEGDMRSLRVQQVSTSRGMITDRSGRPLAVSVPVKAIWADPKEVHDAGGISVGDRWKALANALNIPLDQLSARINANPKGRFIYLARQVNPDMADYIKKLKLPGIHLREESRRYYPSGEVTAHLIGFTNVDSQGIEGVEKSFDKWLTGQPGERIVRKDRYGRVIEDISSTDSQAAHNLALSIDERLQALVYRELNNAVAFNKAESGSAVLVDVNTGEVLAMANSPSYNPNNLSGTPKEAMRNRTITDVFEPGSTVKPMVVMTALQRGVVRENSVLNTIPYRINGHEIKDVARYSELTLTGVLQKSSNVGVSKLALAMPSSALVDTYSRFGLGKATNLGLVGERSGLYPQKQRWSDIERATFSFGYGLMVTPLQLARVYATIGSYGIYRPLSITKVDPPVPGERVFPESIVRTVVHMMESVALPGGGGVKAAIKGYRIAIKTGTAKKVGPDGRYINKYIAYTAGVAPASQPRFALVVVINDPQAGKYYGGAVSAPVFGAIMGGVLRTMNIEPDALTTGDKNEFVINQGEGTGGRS
B3: Peptidoglycan D,D-transpeptidase FtsI (Escherichia coli (strain K12)), P0AD68 (parent)
chain: B2 partner
partner: B1 chain

Variants of: B1
Conditions: with pbpb_ecoli mrcB

effect of a mutation on the interaction	Variant
decreasing interaction	P375A
decreasing interaction	P368A

Variants of: B2
Conditions: with ftsi_ecoli ftsI

effect of a mutation on the interaction	Variant
decreasing interaction	P368A
decreasing interaction	P375A

Variants of: B3
Conditions: with ftsw_ecoli ftsW

effect of a mutation on the interaction	Variant
decreasing interaction strength	R23C

— IntAct's records for PubMed 20847002
